Measurements as given in the DeepSol protein solubility set.

assay: soluble on expression in E. coli; label from the status in PepcDB or PDB records

Sequence	soluble on expression in E. coli
MKNNADFAYQAVYRYLVQLVDQGQGESALKMPSLRHLAQRLRVSISTVQSAYSLLEKEGRIYSVAKSGYYSAPRSAAIEVRARFDSDGDLLQMHHYYARRSGMSLLSSDAPTLLQAQESPLLAMEHELVRNYPRPRQADFQPFGELQLRIALAARYTRGAEHCWHADNVHVAPDVHGAFKAVIETLGLRGGAVLVESPCAWGLLRLLRSFDIRVIELPLDETGSLDPIQLERLLLENNVGLVVLPSMFNSVRGSVRPLCNSRAVAKVLDRHQVWVLENDSHGALQFAADQTCLRHLIDPQRLIIIGTFEKCLGPEAPYGYLLCKNLDARWQAYFLLRAFELPPTRQRAIARLCSSGRLDKHLAQLREALAGHLQLMMQHLNEHTDGLLRYEVPEGGCGIWARSVYPVDMRQVFNRLLAKRIVITPGELFSLESLYGQHLWISYAIDWSRDPGELFSALAQALHLARQP	not soluble
MKNNKIYLLGACLLCAVTTFAQNVSLQPPPQQLIVQNKTIDLPAVYQLNGGEEANPHAVKVLKELLSGKQSSKKGMLISIGEKGDKSVRKYSRQIPDHKEGYYLSVNEKEIVLAGNDERGTYYALQTFAQLLKDGKLPEVEIKDYPSVRYRGVVEGFYGTPWSHQARLSQLKFYGKNKMNTYIYGPKDDPYHSAPNWRLPYPDKEAAQLQELVAVANENEVDFVWAIHPGQDIKWNKEDRDLLLAKFEKMYQLGVRSFAVFFDNISGEGTNPQKQAELLNYIDEKFAQVKPDINQLVMCPTEYNKSWSNPNGNYLTTLGDKLNPSIQIMWTGDRVISDITRDGISWINERIKRPAYIWWNFPVSDYVRDHLLLGPVYGNDTTIAKEMSGFVTNPMEHAESSKIAIYSVASYAWNPAKYDTWQTWKDAIRTILPSAAEELECFAMHNSDLGPNGHGYRREESMDIQPAAERFLKAFKEGKNYDKADFETLQYTFERMKESADILLMNTENKPLIVEITPWVHQFKLTAEMGEEVLKMVEGRNESYFLRKYNHVKALQQQMFYIDQTSNQNPYQPGVKTATRVIKPLIDRTFATVVKFFNQKFNAHLDATTDYMPHKMISNVEQIKNLPLQVKANRVLISPANEVVKWAAGNSVEIELDAIYPGENIQINFGKDAPCTWGRLEISTDGKEWKTVDLKQKESRLSAGLQKAPVKFVRFTNVSDEEQQVYLRQFVLTIEKK	soluble
MKNRIIAAGVIAASILSYSSSSFAQTKTFPDVQTGHWAEDSINYLAEKGAVTGNEKGMFEPGKEITRAEAATMMAKILNLPIDKNAKPSYADSQKHWATPIIAAVEKAGVVKGTGNGFEPDGKIDRVSMASLLVEAYKLESKVNGTPATKFKDLETLNWGKEKANILVELGISVGTGDKWEPKKILTKAEAAQFIKKADSLKVGNPLVEKVVIIDPGHGGFDPGNPGQGVEESKIVFDTSLRLQKLLEKNTPLKALLTREENGNPGSNKNESLANRVKFGQENNADIFVSIHANSSEKHDGHGTETYYYKKSKRGEETQIEKDSEVLAKKIQNRVVEALHTRDRKIKDDHSLYVVNNNTVPAVLTELAFIDNDIDNGKLATESGRQIAAEAVYAGILDYYEWKGFDVSKYRLAK	not soluble
MKNTSRDTVVMSWWDFGHLFAVAADRPVTFDGGSQNTPRAYWIGKALTTSNETLSRGILTMLSTSGDLAYETLDNYTDDSGKTAEILTATLGLPREEARAVMTGRYGLSDKEADSVLRYSHPAKPKPFVLVLSSDMLGKAPWWTYFGTWDFKKKTGSRYGYYPSLEHHHHHH	soluble
MKNVKTIAAAVVLATMTFGASAAEYVSPSQAQNLEKAGVVTATAQDLSSLQSQLAAKAEKAGAKAYTITSATGNDQLRGSAVIFN	not soluble
MKPFLSACLIVKNEEEMLGKCLESLRRVIEEIIVVDTGSTDSTKEIARQFTDKVYDFEWMNDFSEARNFAASKANGEWIIAIDADECVDPDNFKEAIKEIKFHQNKFNMYLVEITSFSGALGENTTVNQMPRIYVNDGTICYKRAIHEQLEAVEGGLRVSLSSLKVYHYGYLSNVVVKQDKKS	soluble
MKPHALIGLLAGMLLSSSLYAADSTKPLPLHIGGRVLVESPANQPVSYTYSWPAVYFETAFKGQSLTLKFDDDQNIFRLIVDDKAPVVINKPGKVDYPVESLAPGKHRVRLEKLTETQSTSGRFLGFYTDPSAKPLALPKRKRQIEFIGDSFTVGYGNTSPSRECTDEELFKTTNSQMAFGPLTAKAFDADYQINASSGFGIVRNYNGTSPDKSLLSLYPYTLNNPDQLYHNKHWKPQVIVIGLGTNDFSTALNDNERWKTREALHADYVANYVKFVKQLHSNNARAQFILMNSDQSNGEIAEQVGKVVAQLKGGGLHQVEQIVFKGLDYSGCHWHPSANDDQLLANLLITHLQQKKGIWLEHHHH	soluble
MKPLRSPWVMRALARFFSGYIALTYKTLRWTREGQAIADRVQAEALASGGGAILALWHSRVPVGPATWPQGPDKPEIRVLVSQSRDGEFIARVIARLGLPSIRGSSLKKTDTAKNKGGEQAFRDMVKWVKDGGAMAITPDGPRGPVEVMQKGAVALARVSGAPVLFVGVAVNPCIRLKTWDRTIIPLPFAKAAMVWDGPVHAGRDDDPDAVVEAWGARLSAVSRRAEAIVGETPPKDLEHHHHHH	not soluble
MKPMSDYDIPTTENLYFQGAMVTTPGKPNDPDNPNNNYIKPTKVNKNKEGLNIDGKEVLAGSTNYYELTWDLDQYKGDKSSKEAIQNGFYYVDDYPEEALDVRPDLVKVADEKGNQVSGVSVQQYDSLEAAPKKVQDLLKKANITVKGAFQLFSADNPEEFYKQYVATGTSLVITDPMTVKSEFGKTGGKYENKAYQIDFGNGYATEVVVNNVPKITPKKDVTVSLDPTSENLDGQTVQLYQTFNYRLIGGLIPQNHSEELEDYSFVDDYDQAGDQYTGNYKTFSSLNLTMKDGSVIKAGTDLTSQTTAETDATNGIVTVRFKEDFLQKISLDSPFQAETYLQMRRIAIGTFENTYVNTVNKVAYASNTVRTTT	soluble
MKPNLLPMNLQMFAEEDGGTNFTFDDFKAFVESNEEAQKFVQSQSQSAADKQLEAWKQNNLEKIKETTIKEYEESKKNKTPEQIKLEELQAEFEAEKALRVTSDNKAFVAEKIAGLDWDGDLKDSISQFMLNNLVSSDTEFTKKAVEGFTELLEAINDKHAEAIKNVEMTKAFGNKSQQTNMGTGNQTKSFENPEVALGQKLQAFID	not soluble
MKPVQLTVDNIAKAIFTVNRHAKTALNPSFLYLLKKKAIEKLLEEGKAKKVGLHFSRNPKYSQQQSDVLVAVGDYYFHIPPTKQDFAALPHLGSLNDSYRNPPARMPLSEAKAILIAYTGLREKPEQKPKRLTRPVFKRLGDRY	not soluble
MKQFVVISGKGGTGKTSVTAGLAAVGKDMVLADCDVDAADLHLVLAPEIRERHDFISGVVASIEPEACISCGLCTTHCRYGAIPQGYAPQVAPEHCEGCGVCAHVCPTGAARLSDRRCGEWYVSDTRFGPMVHAALGIGEENSGKLVSTVRTRARELAEARDASVVLIDGSPGVGCPVIASLAGADAALAVTEPTVSALHDLERVHALARHFDVRMAVLLNKADIHPGMAERIIGYCTTHDLPLVGRFGFSPLFVQAQLEGRTLPEQDSGEWRQRFNGVWNQLLALVLEHHHHHH	not soluble
MKQTNPFVYSNDNKRYHTWNYCLREEFGQKTYKVALDGGFDCPNRDGTVAHGGCTFCSAAGSGDFAGNRALDLKVQFQQVRDKMQTKWKDGKCIAYFQAFTNTHAPVAELREKFETVLNEPGVVGLSIATRPDCLPDDVVEYLAELNERTYLWLELGLQSAHDETGRLINRAHDYDCYLEGVRKLQKHNIRICTHIINGLPKETPEMMMETAQKVVESGVDGIKIHLLHLLKGTPMVEDYKKGDLEFLTRDGYVNLVADQLEILPPEMVIHRITGDGGVDDLIGPVWSLNKFEVLNAIDAELVRRDSWQGKLYQPVEVSSK	not soluble
MKRAPFLCKQSPDRTLEVVILAGSLAWETSRVWRKDPDREDDVPPMVLGPNELADLSNLTIIRPDTLYVRVLRTGDISEEDLLKIAVKLAHAGVQMARLMSPDGELLENWTGQLERLRQERPSDILPDHFRLDEEALWFDKLTERRDGESDVQPQRICSPLRVTAITCDSHDGSYGRLLEWHTTTGQLRRWAMPMAMLSGNGEELRRILLENGLTNISTRPALRSLLCEYISRSLPGRRVTCVEKTGWHNGVYVLPDEVIGPDGDNVILQGSHYLTGGFAQAGTLAEWQEQVAALCAGNSRLVFAVCCALAAPLLRLTGTGGGGFHLRGESTDGKTTVMKVAASVCGGTDYWHSWRATGNALEGIASRHNDALLPLDELREVDPREAGMIAYMLANGQGKGRARTDGEVRNRRHWTLLLEHHHHHH	not soluble
